Earlier results on one substance are cited in PMC11302571.

The data set addresses BT-R3 (Anopheles gambiae).

By Kd is commonly meant the free concentration of one partner at which half of the binding sites on the other are occupied at equilibrium, for simple one-to-one binding. In the case of Cry4B toxin (from UniProt P05519), the Kd is 36 nM.
